B1: human CXCL13 (ligand)
chain: VLEVYYTSLRCRCVQESSVFIPRRFIDRIQILPRGNGCPRKEIIVWKKNKSIVCVDPQAEWIQRMMEVLRKRSSSTLPVPVFKRKIP

These molecules were tested against hTNFR2-SCP3-Fc (human | ectromelia virus) (UniProt P20333) (assay: SPR; […], single-cycle; 1:1 Langmuir fit).
Sequence of UniProt P20333 (P20333 23-257 limits assumed): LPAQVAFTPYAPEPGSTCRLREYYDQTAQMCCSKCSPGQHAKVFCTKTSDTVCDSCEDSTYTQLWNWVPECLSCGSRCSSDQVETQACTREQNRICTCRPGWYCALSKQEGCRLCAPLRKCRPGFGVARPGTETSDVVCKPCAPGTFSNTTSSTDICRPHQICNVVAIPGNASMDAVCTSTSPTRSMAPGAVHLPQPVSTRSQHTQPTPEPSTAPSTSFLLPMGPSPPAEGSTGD

Molecule	Kd	koff	kon
human CCL25 (from UniProt O15444 24-150) (ligand)	6.75 nM	0.00374 s⁻¹	554000 M⁻¹ s⁻¹
human CXCL12 (from UniProt P48061 22-93) (ligand)	49.8 nM	0.00825 s⁻¹	166000 M⁻¹ s⁻¹
B1	21.4 nM	0.00155 s⁻¹	72000 M⁻¹ s⁻¹
